The results in this text go back to publication PMC5890618, “Structural and Functional Insights into Bacillus subtilis Sigma Factor Inhibitor, CsfB” (Structure(London, England:1993), 2018).

Sequences and labels used below:
B2: σ^E (truncated sigma factor E, residues 17-239, lacking the N-terminal membrane-anchored pro-sequence) (domain or fragment, Bacillus subtilis, UniProt P06222 17-239, looked up)
chain: MKLGLKSDEVYYIGGSEALPPPLSKDEEQVLLMKLPNGDQAARAILIERNLRLVVYIARKFENTGINIEDLISIGTIGLIKAVNTFNPEKKIKLATYASRCIENEILMYLRRNNKIRSEVSFDEPLNIDWDGNELLLSDVLGTDDDIITKDIEANVDKKLLKKALEQLNEREKQIMELRFGLVGEEEKTQKDVADMMGISQSYISRLEKRIIKRLRKEFNKMV
notes: Cloned into pET28-TxrA; The tag was removed with TEV 'when required'; also called sigma E; SigE; source: E. coli BL21(DE3)pLysS, purified (HisTrap Ni Sepharose, Superdex75 SEC)
B3: CsfB^A48E (full-length CsfB variant A48E, residues 1-64) (natural protein, Bacillus subtilis, UniProt P37534 1-64, looked up)
chain: MDETVKLNHTCVICDQEKNRGIHLYTKFICLDCERKVISTSTSDPDYEFYVKKLKSIHTPPLYS
notes: Anti-sigma factor CsfB (also called Gin), Bacillus subtilis strain PY79, full length, residues 1-64, with A48E at the known cleavage point; Made by site-directed mutagenesis of pNIC28-CsfB; The His-tag was removed with TEV 'when required'; 15N-labelled for the NMR titrations; also called Gin A48E; source: E. coli BL21(DE3)pLysS, purified (HisTrap Ni Sepharose, Superdex75 SEC)

Data set [1] concerns the molecule itself. Nature of the data set: NMR solution structure; CsfB 1-48 dimer, >500 uM, 303 K, 50 mM HEPES pH 7.5, 150 mM KCl, 0.5 mM TCEP; intermolecular NOEs from 12C-filtered, 13C-edited NOESY on a mixed labelled/unlabelled dimer; ARIA2.3 with C2 symmetry.
The target of data set [2] is B3. Nature of the data set: ITC; cell 60 uM CsfB^A48E, syringe 395 uM σ^E; 25°C; 19 injections of 2 ul; 50 mM HEPES pH 7.5, 150 mM KCl, 0.5 mM TCEP; fitted assuming 1:1 stoichiometry. The settings on record: both partners purified. In general terms: ITC needs no label: the signal is the heat of the interaction.
Data set [3] addresses T1, σ^G (recombinant full-length sigma factor G, residues 1-260) (Bacillus subtilis, UniProt P19940 1-260).
T1 construct: Cloned into pET-46; also called sigma G; SigG; source: E. coli BL21(DE3)pLysS, purified (HisTrap Ni Sepharose, Superdex75 SEC)
T1 sequence (looked up): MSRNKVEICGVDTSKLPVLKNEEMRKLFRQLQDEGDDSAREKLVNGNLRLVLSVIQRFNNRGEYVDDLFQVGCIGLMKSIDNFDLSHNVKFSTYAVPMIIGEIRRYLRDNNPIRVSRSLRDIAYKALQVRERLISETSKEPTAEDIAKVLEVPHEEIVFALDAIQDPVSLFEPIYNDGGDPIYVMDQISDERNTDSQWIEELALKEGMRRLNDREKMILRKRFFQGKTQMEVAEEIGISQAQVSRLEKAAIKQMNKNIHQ
The data set is described as follows: NMR titration; 15N-labelled CsfB (100 uM for CsfB^A48E) titrated with unlabelled sigma factor up to 1:2 molar equivalents; 1H-15N SOFAST-HMQC; 298 K; 50 mM HEPES pH 7.5, 150 mM KCl, 0.5 mM TCEP. The settings on record: both partners purified.

Data set [4] concerns the target B2. The data set is described as follows: ITC; cell 60 uM CsfB^A48E, syringe 395 uM σ^E; 25°C; 19 injections of 2 ul; 50 mM HEPES pH 7.5, 150 mM KCl, 0.5 mM TCEP; fitted assuming 1:1 stoichiometry. The settings on record: both partners purified.

B1: CsfB^1-48 (truncated wild-type CsfB, stable degradation product, residues 1-48) (domain or fragment, Bacillus subtilis, UniProt P37534 1-48, looked up)
chain: MDETVKLNHTCVICDQEKNRGIHLYTKFICLDCERKVISTSTSDPDYA
notes: Produced as N-terminally histidine-tagged full-length CsfB that degraded to 1-48; Symmetrical homodimer by NMR; also called cleaved CsfB; truncated variant; source: E. coli BL21(DE3)pLysS, purified (HisTrap Ni Sepharose, Superdex75 SEC); arises by degradation of recombinant full-length CsfB
As usually defined, the stoichiometry N is a count of units in the complex or per binding partner. For B1, in data set [1], the “stoichiometry N” value was found to be 2.

As to B2, in data set [2], the dH is -8.04 ± 0.04 kcal/mol and the “stoichiometry N” value was 1.01 sites.

A word on the Kd: it is the concentration at which binding is half-saturated. A low value points to higher affinity. Consider B3, for which, in data set [3], the binding result is “binds”. Also, in data set [4], binding was characterised by a dissociation constant (Kd) of 12.5 ± 2.4 nM.
